Laboratory results taken from article PMC8006934.

Tests used:
[1] = target: FcγRIIb, human, C-terminally biotinylated (human) (UniProt P31994); test: SPR; settings: natural protein; remark: other sources report otherwise
[2] = target: FcγRIa, FcγRIIa/b, and FcγRIIIa; test: SPR; IBIS MX96 array; C-terminally biotinylated FcRs spotted at different densities (100–1 nM) on one SensEye G-streptavidin sensor, blocked with biotinylated BSA; CRP injected in 2-fold dilutions from 0.98 to 2,000 nM in 20 mM Tris, 280 mM NaCl, 5 mM CaCl2, pH 8.0; KD by equilibrium fitting to Rmax = 500

Chain of FcγRIIb, human, C-terminally biotinylated (human) (P31994 43-217): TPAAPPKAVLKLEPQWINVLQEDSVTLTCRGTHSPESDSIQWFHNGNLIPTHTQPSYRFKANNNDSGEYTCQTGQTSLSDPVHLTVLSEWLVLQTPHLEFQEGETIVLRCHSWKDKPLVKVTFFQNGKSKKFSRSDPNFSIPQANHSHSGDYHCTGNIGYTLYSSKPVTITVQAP

| Substance | Kd [1] [µM] | Kd [2] [µM] |
| --- | --- | --- |
| C-reactive protein (native CRP from human fluid) (from UniProt P02741 19-224) | 4.2 | – |
| C-reactive protein (native CRP from human fluid) (from UniProt P02741 19-224) (natural protein) | – | 3.4 to 4.9 |
